Source: PMC12148588 (2025)
Changes are numbered by the printed parent chain. Where two headings read alike, the source gives them in different places.

Key:
[1] = target: T1, SARS-CoV-2 RBD of the Wuhan strain (Acro Biosystems SPD-C82E9-25) (SARS-CoV-2, UniProt P0DTC2); test: SPR
[2] = target: T1, SARS-CoV-2 RBD of the Wuhan strain …; test: SPR; remark: listed apart in the source

B1: MB043_CL39 (antibody, V domains shown)
VH: EVQLVETGGGLIHPGGSLRLSCAASEFIVSYNYMSWVRQAPGKGLEWVSVIYSGGSTFYADAVKGRFTISRDSSKNTLDLLMNSLRVEDTAVYYCARVLPSNTDYFDYWGQGILVTVSS
VL: QSVLTQPPSVSGATGQRVTISCTGSNSNIGAGSDVHWYQQLPGAAPKLLIYVNNNRPSGVPDRFSGSKSGTSASLAITGLQAEDEADYYCQSYDSSLSGYVFGTGTKVTVL
Kd [1]: 0.0273 nM

B2: MB027_D06L (antibody, V domains shown)
VH: B1 VH with H13Q, E26G, Y31S, V50I, S73N, L81Q, V87A, S101T, N102S
VL: B1 VL with T14P, Q40H, A44T, K47T, V52S, N54S, G99T
Kd [1]: 7.17 nM

B3: MB025_A07K (antibody, V domains shown)
VH: EVQLVESGGDLVQPGGSLRLSCAASEFIVSSNYMSWVRQTPGKGLEWISVLYSGGSTFYADSVKGRFTISRDNSKNTLYLQMNSLRVEDTAVYYCARDFGEFWFDYWGQGTLVTVSS
VL: EIVLTQSPGTLSLSPGERATLSCRASQTINSYLAWYQQKPGQAPRLLIYGASSRATGIPDRFSGSGSGTDFTLTISRLEPEDFAVYYCQQYGNSPRTFGQGTKVEIK
Kd [2]: 0.159 nM

B4: MB025_A09L (antibody, V domains shown)
VH: EVQLVESGGGLVQPGGSLRLSCAASGFSVSIFYMNWVRQAPGKGLEWVSSVYSGETTYYADSVRGRFTISRDNSKSTLYLQMNSLRPEDTAVYYCARGVDYRTNRTEGGAFDIWGQGTMVTVSS
VL: QSALTQPASVSGSPGQSIPISCTGTSSDFGNYNLISWYQQHPGKAPKLMIYEGTKRPSGVSDRFSGSKSANTASLTISGLQAEDEADYYCCSYAGSSTWMFGGGTKLTVL
Kd [2]: 0.00491 nM
